Reference: US20250218531A1 (ABSCI, published 2025)

B1: Trastuzumab HCDR3 variant ARYGGGYYYMDY (Fab, V domains shown)
VH: EVQLVESGGGLVQPGGSLRLSCAASGFNIKDTYIHWVRQAPGKGLEWVARIYPTNGYTRYADSVKGRFTISADTSKNTAYLQMNSLRAEDTAVYYCARYGGGYYYMDYWGQGTLVTVSS
VL: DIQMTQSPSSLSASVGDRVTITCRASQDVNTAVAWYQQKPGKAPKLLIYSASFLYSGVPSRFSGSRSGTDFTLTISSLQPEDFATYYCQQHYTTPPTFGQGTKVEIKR
B2: Trastuzumab HCDR3 variant ARWGGYYYYFDY (Fab, V domains shown)
VH: EVQLVESGGGLVQPGGSLRLSCAASGFNIKDTYIHWVRQAPGKGLEWVARIYPTNGYTRYADSVKGRFTISADTSKNTAYLQMNSLRAEDTAVYYCARWGGYYYYFDYWGQGTLVTVSS
VL: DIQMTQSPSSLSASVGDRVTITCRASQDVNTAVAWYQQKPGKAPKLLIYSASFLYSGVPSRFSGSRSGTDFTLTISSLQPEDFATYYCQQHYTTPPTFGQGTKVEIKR
B3: Trastuzumab HCDR3 variant ARWLAYWYAMDY (Fab, V domains shown)
VH: EVQLVESGGGLVQPGGSLRLSCAASGFNIKDTYIHWVRQAPGKGLEWVARIYPTNGYTRYADSVKGRFTISADTSKNTAYLQMNSLRAEDTAVYYCARWLAYWYAMDYWGQGTLVTVSS
VL: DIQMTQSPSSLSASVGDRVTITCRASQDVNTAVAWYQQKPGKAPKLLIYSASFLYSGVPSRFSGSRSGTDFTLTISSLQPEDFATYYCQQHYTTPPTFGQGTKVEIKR
B4: Trastuzumab HCDR3 variant ARFGSYYYYFDY (Fab, V domains shown)
VH: EVQLVESGGGLVQPGGSLRLSCAASGFNIKDTYIHWVRQAPGKGLEWVARIYPTNGYTRYADSVKGRFTISADTSKNTAYLQMNSLRAEDTAVYYCARFGSYYYYFDYWGQGTLVTVSS
VL: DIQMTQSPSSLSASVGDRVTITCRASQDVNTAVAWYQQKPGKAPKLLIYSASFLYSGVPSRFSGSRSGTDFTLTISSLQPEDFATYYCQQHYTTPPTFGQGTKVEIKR
B5: Trastuzumab HCDR3 variant ARWGGYYYYMDY (Fab, V domains shown)
VH: EVQLVESGGGLVQPGGSLRLSCAASGFNIKDTYIHWVRQAPGKGLEWVARIYPTNGYTRYADSVKGRFTISADTSKNTAYLQMNSLRAEDTAVYYCARWGGYYYYMDYWGQGTLVTVSS
VL: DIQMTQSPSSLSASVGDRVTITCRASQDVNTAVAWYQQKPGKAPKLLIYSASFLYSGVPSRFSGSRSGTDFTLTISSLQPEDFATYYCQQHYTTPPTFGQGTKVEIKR
B6: Trastuzumab HCDR3 variant ARWGGNYYYMDY (Fab, V domains shown)
VH: EVQLVESGGGLVQPGGSLRLSCAASGFNIKDTYIHWVRQAPGKGLEWVARIYPTNGYTRYADSVKGRFTISADTSKNTAYLQMNSLRAEDTAVYYCARWGGNYYYMDYWGQGTLVTVSS
VL: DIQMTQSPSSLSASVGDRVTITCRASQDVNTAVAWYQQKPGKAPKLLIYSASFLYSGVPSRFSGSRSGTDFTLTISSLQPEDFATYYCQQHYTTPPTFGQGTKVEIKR
B7: Trastuzumab HCDR3 variant ARWGNYYYYMDY (Fab, V domains shown)
VH: EVQLVESGGGLVQPGGSLRLSCAASGFNIKDTYIHWVRQAPGKGLEWVARIYPTNGYTRYADSVKGRFTISADTSKNTAYLQMNSLRAEDTAVYYCARWGNYYYYMDYWGQGTLVTVSS
VL: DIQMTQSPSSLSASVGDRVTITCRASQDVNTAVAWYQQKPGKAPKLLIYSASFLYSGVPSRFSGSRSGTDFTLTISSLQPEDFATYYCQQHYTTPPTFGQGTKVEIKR
B8: Trastuzumab HCDR3 variant ARWGDYYYYMDY (Fab, V domains shown)
VH: EVQLVESGGGLVQPGGSLRLSCAASGFNIKDTYIHWVRQAPGKGLEWVARIYPTNGYTRYADSVKGRFTISADTSKNTAYLQMNSLRAEDTAVYYCARWGDYYYYMDYWGQGTLVTVSS
VL: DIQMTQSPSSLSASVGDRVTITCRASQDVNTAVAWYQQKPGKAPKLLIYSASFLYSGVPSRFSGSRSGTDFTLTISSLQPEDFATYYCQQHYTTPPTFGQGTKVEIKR
B9: Trastuzumab HCDR3 variant ARWGFSMYSFDY (Fab, V domains shown)
VH: EVQLVESGGGLVQPGGSLRLSCAASGFNIKDTYIHWVRQAPGKGLEWVARIYPTNGYTRYADSVKGRFTISADTSKNTAYLQMNSLRAEDTAVYYCARWGFSMYSFDYWGQGTLVTVSS
VL: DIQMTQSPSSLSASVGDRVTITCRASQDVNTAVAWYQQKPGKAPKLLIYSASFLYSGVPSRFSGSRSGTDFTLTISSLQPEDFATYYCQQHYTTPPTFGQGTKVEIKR
B10: Trastuzumab HCDR3 variant ALYNYYYYAFGF (Fab, V domains shown)
VH: EVQLVESGGGLVQPGGSLRLSCAASGFNIKDTYIHWVRQAPGKGLEWVARIYPTNGYTRYADSVKGRFTISADTSKNTAYLQMNSLRAEDTAVYYCALYNYYYYAFGFWGQGTLVTVSS
VL: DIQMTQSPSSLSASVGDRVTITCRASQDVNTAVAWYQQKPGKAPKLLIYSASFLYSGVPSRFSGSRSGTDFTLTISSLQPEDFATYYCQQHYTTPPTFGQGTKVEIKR
B11: Trastuzumab HCDR3 variant ARWFYDYYYMDY (Fab, V domains shown)
VH: EVQLVESGGGLVQPGGSLRLSCAASGFNIKDTYIHWVRQAPGKGLEWVARIYPTNGYTRYADSVKGRFTISADTSKNTAYLQMNSLRAEDTAVYYCARWFYDYYYMDYWGQGTLVTVSS
VL: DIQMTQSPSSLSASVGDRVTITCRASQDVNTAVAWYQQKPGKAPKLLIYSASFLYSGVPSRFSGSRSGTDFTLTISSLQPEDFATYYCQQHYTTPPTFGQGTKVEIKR
B12: Trastuzumab HCDR3 variant ARWGSGYYYMDY (Fab, V domains shown)
VH: EVQLVESGGGLVQPGGSLRLSCAASGFNIKDTYIHWVRQAPGKGLEWVARIYPTNGYTRYADSVKGRFTISADTSKNTAYLQMNSLRAEDTAVYYCARWGSGYYYMDYWGQGTLVTVSS
VL: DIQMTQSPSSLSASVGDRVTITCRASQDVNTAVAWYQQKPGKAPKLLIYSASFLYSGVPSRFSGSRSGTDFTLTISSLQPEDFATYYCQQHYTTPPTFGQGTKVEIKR
B13: Trastuzumab HCDR3 variant ARWGGDFYAMDY (Fab, V domains shown)
VH: EVQLVESGGGLVQPGGSLRLSCAASGFNIKDTYIHWVRQAPGKGLEWVARIYPTNGYTRYADSVKGRFTISADTSKNTAYLQMNSLRAEDTAVYYCARWGGDFYAMDYWGQGTLVTVSS
VL: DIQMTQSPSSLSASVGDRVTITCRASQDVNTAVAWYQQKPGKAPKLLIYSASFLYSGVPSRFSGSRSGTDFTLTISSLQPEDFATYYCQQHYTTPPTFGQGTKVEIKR
B14: Trastuzumab HCDR3 variant ARWGYGYYYFDY (Fab, V domains shown)
VH: EVQLVESGGGLVQPGGSLRLSCAASGFNIKDTYIHWVRQAPGKGLEWVARIYPTNGYTRYADSVKGRFTISADTSKNTAYLQMNSLRAEDTAVYYCARWGYGYYYFDYWGQGTLVTVSS
VL: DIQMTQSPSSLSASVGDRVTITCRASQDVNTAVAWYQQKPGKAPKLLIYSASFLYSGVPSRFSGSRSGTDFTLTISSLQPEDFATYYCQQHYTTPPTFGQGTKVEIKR
B15: Trastuzumab HCDR3 variant AKYSFGGYYYGD (Fab, V domains shown)
VH: EVQLVESGGGLVQPGGSLRLSCAASGFNIKDTYIHWVRQAPGKGLEWVARIYPTNGYTRYADSVKGRFTISADTSKNTAYLQMNSLRAEDTAVYYCAKYSFGGYYYGDWGQGTLVTVSS
VL: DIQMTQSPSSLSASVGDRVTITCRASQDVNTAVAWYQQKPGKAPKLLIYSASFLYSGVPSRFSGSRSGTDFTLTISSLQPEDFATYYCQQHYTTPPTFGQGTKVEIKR
B16: Trastuzumab HCDR3 variant ARWGDGYYYMDY (Fab, V domains shown)
VH: EVQLVESGGGLVQPGGSLRLSCAASGFNIKDTYIHWVRQAPGKGLEWVARIYPTNGYTRYADSVKGRFTISADTSKNTAYLQMNSLRAEDTAVYYCARWGDGYYYMDYWGQGTLVTVSS
VL: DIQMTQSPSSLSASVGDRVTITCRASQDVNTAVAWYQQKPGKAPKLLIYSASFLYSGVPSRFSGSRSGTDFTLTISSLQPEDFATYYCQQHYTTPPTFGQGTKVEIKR
B17: Trastuzumab HCDR3 variant ARWGYYYYAMDY (Fab, V domains shown)
VH: EVQLVESGGGLVQPGGSLRLSCAASGFNIKDTYIHWVRQAPGKGLEWVARIYPTNGYTRYADSVKGRFTISADTSKNTAYLQMNSLRAEDTAVYYCARWGYYYYAMDYWGQGTLVTVSS
VL: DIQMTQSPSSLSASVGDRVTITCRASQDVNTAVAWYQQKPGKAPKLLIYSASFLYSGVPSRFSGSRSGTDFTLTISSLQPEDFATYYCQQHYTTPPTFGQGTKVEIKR
B18: Trastuzumab HCDR3 variant ALWGFGWYYFDY (Fab, V domains shown)
VH: EVQLVESGGGLVQPGGSLRLSCAASGFNIKDTYIHWVRQAPGKGLEWVARIYPTNGYTRYADSVKGRFTISADTSKNTAYLQMNSLRAEDTAVYYCALWGFGWYYFDYWGQGTLVTVSS
VL: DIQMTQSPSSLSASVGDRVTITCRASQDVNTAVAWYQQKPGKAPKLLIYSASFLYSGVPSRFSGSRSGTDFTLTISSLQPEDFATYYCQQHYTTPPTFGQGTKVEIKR
B19: Trastuzumab HCDR3 variant AKYGSNYYYLGS (Fab, V domains shown)
VH: EVQLVESGGGLVQPGGSLRLSCAASGFNIKDTYIHWVRQAPGKGLEWVARIYPTNGYTRYADSVKGRFTISADTSKNTAYLQMNSLRAEDTAVYYCAKYGSNYYYLGSWGQGTLVTVSS
VL: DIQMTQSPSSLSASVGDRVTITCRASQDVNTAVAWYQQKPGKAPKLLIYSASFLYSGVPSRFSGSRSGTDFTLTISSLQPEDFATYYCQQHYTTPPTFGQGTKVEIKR
B20: Trastuzumab HCDR3 variant ARFGNSGYQFDY (Fab, V domains shown)
VH: EVQLVESGGGLVQPGGSLRLSCAASGFNIKDTYIHWVRQAPGKGLEWVARIYPTNGYTRYADSVKGRFTISADTSKNTAYLQMNSLRAEDTAVYYCARFGNSGYQFDYWGQGTLVTVSS
VL: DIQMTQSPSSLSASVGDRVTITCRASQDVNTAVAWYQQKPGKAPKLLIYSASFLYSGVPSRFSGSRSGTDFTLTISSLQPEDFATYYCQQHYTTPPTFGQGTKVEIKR
B21: Trastuzumab HCDR3 variant ARWFGGYYHMDY (Fab, V domains shown)
VH: EVQLVESGGGLVQPGGSLRLSCAASGFNIKDTYIHWVRQAPGKGLEWVARIYPTNGYTRYADSVKGRFTISADTSKNTAYLQMNSLRAEDTAVYYCARWFGGYYHMDYWGQGTLVTVSS
VL: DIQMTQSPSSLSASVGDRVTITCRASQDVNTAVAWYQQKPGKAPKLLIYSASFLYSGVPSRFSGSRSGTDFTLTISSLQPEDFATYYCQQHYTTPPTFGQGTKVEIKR
B22: Trastuzumab HCDR3 variant ARWGYYYYYMDY (Fab, V domains shown)
VH: EVQLVESGGGLVQPGGSLRLSCAASGFNIKDTYIHWVRQAPGKGLEWVARIYPTNGYTRYADSVKGRFTISADTSKNTAYLQMNSLRAEDTAVYYCARWGYYYYYMDYWGQGTLVTVSS
VL: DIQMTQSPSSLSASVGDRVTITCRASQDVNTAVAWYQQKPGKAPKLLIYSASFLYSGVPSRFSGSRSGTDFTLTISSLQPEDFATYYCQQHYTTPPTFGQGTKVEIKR
B23: Trastuzumab HCDR3 variant ARWGYDYYYFAY (Fab, V domains shown)
VH: EVQLVESGGGLVQPGGSLRLSCAASGFNIKDTYIHWVRQAPGKGLEWVARIYPTNGYTRYADSVKGRFTISADTSKNTAYLQMNSLRAEDTAVYYCARWGYDYYYFAYWGQGTLVTVSS
VL: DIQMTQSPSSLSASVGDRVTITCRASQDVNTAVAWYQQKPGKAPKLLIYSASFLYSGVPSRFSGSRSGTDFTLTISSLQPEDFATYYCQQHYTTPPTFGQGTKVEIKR
B24: Trastuzumab HCDR3 variant ARWAGDYYVMDY (Fab, V domains shown)
VH: EVQLVESGGGLVQPGGSLRLSCAASGFNIKDTYIHWVRQAPGKGLEWVARIYPTNGYTRYADSVKGRFTISADTSKNTAYLQMNSLRAEDTAVYYCARWAGDYYVMDYWGQGTLVTVSS
VL: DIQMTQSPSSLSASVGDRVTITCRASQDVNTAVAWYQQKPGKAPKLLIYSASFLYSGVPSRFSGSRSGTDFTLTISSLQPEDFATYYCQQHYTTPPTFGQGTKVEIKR
B25: Trastuzumab HCDR3 variant ARWPGGYYHMDY (Fab, V domains shown)
VH: EVQLVESGGGLVQPGGSLRLSCAASGFNIKDTYIHWVRQAPGKGLEWVARIYPTNGYTRYADSVKGRFTISADTSKNTAYLQMNSLRAEDTAVYYCARWPGGYYHMDYWGQGTLVTVSS
VL: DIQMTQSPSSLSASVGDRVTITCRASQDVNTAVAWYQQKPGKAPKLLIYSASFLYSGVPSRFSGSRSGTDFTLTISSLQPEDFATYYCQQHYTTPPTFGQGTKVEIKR
B26: Trastuzumab HCDR3 variant ARFGGYYYYFDY (Fab, V domains shown)
VH: EVQLVESGGGLVQPGGSLRLSCAASGFNIKDTYIHWVRQAPGKGLEWVARIYPTNGYTRYADSVKGRFTISADTSKNTAYLQMNSLRAEDTAVYYCARFGGYYYYFDYWGQGTLVTVSS
VL: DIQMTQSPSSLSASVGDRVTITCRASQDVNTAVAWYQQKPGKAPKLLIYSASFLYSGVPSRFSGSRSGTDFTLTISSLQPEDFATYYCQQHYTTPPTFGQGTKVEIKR
B27: Trastuzumab HCDR3 variant AIYSDGAYFYGR (Fab, V domains shown)
VH: EVQLVESGGGLVQPGGSLRLSCAASGFNIKDTYIHWVRQAPGKGLEWVARIYPTNGYTRYADSVKGRFTISADTSKNTAYLQMNSLRAEDTAVYYCAIYSDGAYFYGRWGQGTLVTVSS
VL: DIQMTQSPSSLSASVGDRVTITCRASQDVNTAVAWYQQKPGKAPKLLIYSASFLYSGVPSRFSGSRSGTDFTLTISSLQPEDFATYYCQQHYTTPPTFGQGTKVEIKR
B28: Trastuzumab HCDR3 variant AKYGDDNYGFSH (Fab, V domains shown)
VH: EVQLVESGGGLVQPGGSLRLSCAASGFNIKDTYIHWVRQAPGKGLEWVARIYPTNGYTRYADSVKGRFTISADTSKNTAYLQMNSLRAEDTAVYYCAKYGDDNYGFSHWGQGTLVTVSS
VL: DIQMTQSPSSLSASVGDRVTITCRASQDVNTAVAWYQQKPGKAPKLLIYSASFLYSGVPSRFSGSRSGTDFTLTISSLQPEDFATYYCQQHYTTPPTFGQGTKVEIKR
B29: Trastuzumab HCDR3 variant ARWGGYYYYFDV (Fab, V domains shown)
VH: EVQLVESGGGLVQPGGSLRLSCAASGFNIKDTYIHWVRQAPGKGLEWVARIYPTNGYTRYADSVKGRFTISADTSKNTAYLQMNSLRAEDTAVYYCARWGGYYYYFDVWGQGTLVTVSS
VL: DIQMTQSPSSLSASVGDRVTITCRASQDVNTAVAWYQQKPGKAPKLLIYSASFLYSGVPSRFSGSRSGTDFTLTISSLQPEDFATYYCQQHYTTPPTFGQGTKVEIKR
B30: Trastuzumab HCDR3 variant AAYTNTFYYLVY (Fab, V domains shown)
VH: EVQLVESGGGLVQPGGSLRLSCAASGFNIKDTYIHWVRQAPGKGLEWVARIYPTNGYTRYADSVKGRFTISADTSKNTAYLQMNSLRAEDTAVYYCAAYTNTFYYLVYWGQGTLVTVSS
VL: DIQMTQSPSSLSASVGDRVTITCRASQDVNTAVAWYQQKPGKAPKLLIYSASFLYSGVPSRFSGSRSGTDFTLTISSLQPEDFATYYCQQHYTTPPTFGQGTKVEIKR
B31: Trastuzumab HCDR3 variant ALYGNYSYGFAR (Fab, V domains shown)
VH: EVQLVESGGGLVQPGGSLRLSCAASGFNIKDTYIHWVRQAPGKGLEWVARIYPTNGYTRYADSVKGRFTISADTSKNTAYLQMNSLRAEDTAVYYCALYGNYSYGFARWGQGTLVTVSS
VL: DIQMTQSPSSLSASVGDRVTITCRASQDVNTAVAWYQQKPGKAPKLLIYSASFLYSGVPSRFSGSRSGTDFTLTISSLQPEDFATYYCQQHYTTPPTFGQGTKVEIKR
B32: Trastuzumab HCDR3 variant ARWQGGYYYWDF (Fab, V domains shown)
VH: EVQLVESGGGLVQPGGSLRLSCAASGFNIKDTYIHWVRQAPGKGLEWVARIYPTNGYTRYADSVKGRFTISADTSKNTAYLQMNSLRAEDTAVYYCARWQGGYYYWDFWGQGTLVTVSS
VL: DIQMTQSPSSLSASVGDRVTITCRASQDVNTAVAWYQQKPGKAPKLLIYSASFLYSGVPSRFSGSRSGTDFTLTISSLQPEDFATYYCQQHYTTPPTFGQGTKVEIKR

target: T1, HER2 (human epidermal growth factor receptor 2) (human, UniProt P04626 23-629); assay: SPR
T1 construct: also called Antigen: HER2

Binder | Kd [nM] | log(KD (M))
B1 | 13.3 | -7.88
B2 | 12.8 | -7.89
B3 | 3.55 | -8.45
B4 | 13 | -7.89
B5 | 3.62 | -8.44
B6 | 4.22 | -8.37
B7 | 1.69 | -8.77
B8 | 2.36 | -8.63
B9 | 7.5 | -8.12
B10 | 20.6 | -7.69
B11 | 12.6 | -7.9
B12 | 4.46 | -8.35
B13 | 9.49 | -8.02
B14 | 25.2 | -7.6
B15 | 19.1 | -7.72
B16 | 5.57 | -8.25

Binder | Kd [nM] | log(KD (M))
B17 | 22.6 | -7.65
B18 | 5.31 | -8.28
B19 | 18.7 | -7.73
B20 | 10.5 | -7.98
B21 | 8.52 | -8.07
B22 | 2.28 | -8.64
B23 | 26.5 | -7.58
B24 | 7.68 | -8.11
B25 | 8.49 | -8.07
B26 | 23.5 | -7.63
B27 | 10.6 | -7.98
B28 | 15.4 | -7.81
B29 | 13 | -7.89
B30 | 19.8 | -7.7
B31 | 12.6 | -7.9
B32 | 13.8 | -7.86
